Here are results for 19 sequences from the DeepSol protein solubility set.

The data set can be described thus: soluble on expression in E. coli; label from the status in PepcDB or PDB records.
Turning to “AFNNNPSSVGAYSSGTYRNLAQEMGKTNIQQKVNSTFDNMFGYNNTQQLYYPYTENGVYKAHYIKAINPDEGDDIRTEGQSWGMTAAVMLNKQEEFDNLWRFAKAYQKNPDNHPDAKKQGVYAWKLKLNQNGFVYKVDEGPAPAGEEYFAFALLNASARWGNSGEFNYYNDAITMLNTIKNKLMENQIIRFSPYIDNLTDPSYHIPAFYDYFANNVTNQADKNYWRQVATKSRTLLKNHFTKVSGSPHWNLPTFLSRLDGSPVIGYIFNGQANPGQWYEFDAWRVIMNVGLDAHLMGAQAWHKSAVNKALGFLSYAKTNNSKNCYEQVYSYGGAQNRGCAGEGQKAANAVALLASTNAGQANEFFNEFWSLSQPTGDYRYYNGSLYMLAMLHVSGNFKFYNNTFN”, the “soluble on expression in E. coli” value is reported as “soluble”.
The value for “SNAMALGFGMKMELQQFLDALASSPEKIEFETTMAVIEDNYDFTPAAFTNGNTQNDANENNGSCKIFAFGLLNALDKEATLACFGRFYREDVLLHPENNDHQNIRNFMVTGWEGIQFETSALTAK” was “soluble”; that for “MATSNLLKNKGSLQFEDKWDFMHPIVLKLLRQESVTKQQWFDLFSDVHAVCLWDDKGSSKIHQALKEDILEFIKQAQARVLSHQDDTALLKAYIVEWRKFFTQCDILPKPFCQLEVTLLGKQSSNKKSNMEDSIVRKLMLDTWNESIFSNIKNRLQDSAMKLVHAERLGEAFDSQLVIGVRESYVNLCSNPEDKLQIYRDNFEKAYLDSTERFYRTQAPSYLQQNGVQNYMKYADAKLKEEEKRALRYLETRRECNSVEALMECCVNALVTSFKETILAECQGMIKRNETEKLHLMFSLMDKVPNGIEPMLKDLEEHIISAGLADMVAAAETITTDSEKYREQLDTLFNRFSKLVKEAFQDDPRFLTARDKAYKAVVNDATIFKAENLYFQ” was “soluble”.
The result for “AMANIAQRPKRGPHDAAIQNILTELQNHAAAWPFLQPVNKEEVPDYYDFIKEPMDLSTMEIKLESNKYQKMEDFIYDARLVFNNCRMYNGENTSYYKYANRLEKFFNNKVKEIPEYSHLID” reads “soluble”; that for “MSTPVLELRGIVKTFGATRALDGASLRVAAGSVHGLVGENGAGKSTLIKVLAGIHRPDAGSLLLDGQPHGHFSPRQVERLGIGFIHQERLLPARFTVGEALFFGHERRFGPLLDRRSQQREAARLLDDYFGLRLPANALIGELSSAEQQMVQIVRALLIKPRVLVFDEPSVALVQREVERLLRIVQRLRDDGLAIVYISHYLQEIEALCDRVTVLRNGRDVAEVSPRNTSLEQITRLMVNREVGELYPKVAVPAGALLLDVRGLGRARAYQGIDLQVRRGEIVGLTGLVGSGAKELLRSLFGLAPPDSGEVRLDGQPLSLRSPREAVAQGVALMPEERRRQGVALDLSVQENTTLAALSRFVRLGLLSPARERHTTLELIERLRIKAHGAHAKVRQLSGGNQQKVALAKWFARCSSLYLLDEPSVGIDVGAKVEIYRLIGELVKEGAGVLILSSDLPELIGLCDRIHVMHRGAIAARFAAGEANSDRLLAVATGAQRAQNEERPFYAYAIAI”, “not soluble”; that for “MNKPVSSIPQSKEELELAINSIFDKLMADYRTIPVELTRERNVEGNIKGTQVSVCDTVAYLIGWGKLVLKWHRLKAQGLPVEFPESGFKWNQLGLLAEHFHEQYADWKYEALLKELESTVNELLSLISSLSNYDLYETTWYDKWTLGRMIQFNTSSPMKNMRSKVRRFKKNKGLLLEHHHHHH”, “soluble”.
As for “MAVSPDDPLILVGRVAGGFGVRGEVRITTYTEDPLSIAGFKALKRQDGSPALTIASARKTKDGVVCRCPGVETKEAADALRGLRLYVPRSALPEPDDDEFYLTDLVGLTVRHIQTDQLLGRVKSVQNFGAGDILEITPDLGGPTWYLPFTRAAVPEVRVSEGLILADPPALVGDHEGPEEKGLDENEELGDRDAAALEHHHHHH”, the “soluble on expression in E. coli” value is recorded as “not soluble”.
Take “MTNAGTTDLSWLPSDADEQLALGFKIVTNAYKTRVTSQEAEIRSLKGQLTEKQEQLSSIQKKYSNLEVQLIESTQRGNQLADENKQLITTIKKLNRDIDRLENLKKAVLNSIQEEHDVEDAHKYYSADDLLQTTAPRTMLEMNGNEDSCQSIINKIVNSDTHNIINGSFNSPYIGNVPLGEKNTDGRAFFRNARSRLSYEQFNQFLSNIKKLNNHQQKREETLKKAQAIFGEANLDLYEEFKVLISKHS”: the “soluble on expression in E. coli” value is reported as “not soluble”.
The value for “KSGKEAGSQIMKFEVQDASPTIATELNLVTGEQVYYIKRLRFIEDNAAQLEETWMSVARFPDLTVSHMQKSKFSYIENECGIKIIGTFETFSPTFPTPEIASILRISPRDPILKIQTQAVDSNSIPLDYSLLYSNIFEFQVKYFFPR” was “not soluble”; that for “MKGTIFAVALNHRSQLDAWQEAFQQSPYKAPPKTAVWFIKPRNTVIGCGEPIPFPQGEKVLSGATVALIVGKTATKVREEDAAEYIAGYALANDVSLPEESFYRPAIKAKCRDGFCPIGETVALSNVDNLTIYTEINGRPADHWNTADLQRNAAQLLSALSEFATLNPGDAILLGTPQARVEIQPGDRVRVLAEGFPPLENPVVDEREVTTRKSFPTLPHPHGTLFALGLNYADHASELEFKPPEEPLVFLKAPNTLTGDNQTSVRPNNIEYMHYEAELVVVIGKQARNVSEADAMDYVAGYTVCNDYAIRDYLENYYRPNLRVKSRDGLTPMLSTIVPKEAIPDPHNLTLRTFVNGELRQQGTTADLIFSVPFLIAYLSEFMTLNPGDMIATGTPKGLSDVVPGDEVVVEVEGVGRLVNRIVSEETAK” was “soluble”; that for “MAHHHHHHMIVKVFDYIYISNVYNANDIYELIKLNIGGVLTCFDCTCIEWCHHNDTNVTNKIFYKDIFVNTKKDLIKCDVPIITNKSVNSDIIGGTHQINNYYNEQNNNYHDNTYKEFTQTHKTNIDPSQIKSDHINEERKEHYDYIIFPSDIINNTQCNNNNLKDYIKSMLILKEDAYIDFDVIHMD” was “not soluble”.
For the sequence “MKLAVITDSSVYLPQDFVQREDLFILDIDITIDGKTYIEGKNLSLDEFYTKMAASKELPKTSQPNLAELDDLLTNLEEEAYTHVIGLFLSGGISGFHQNIQYLIAEHDKLEIAFPDTKITSSPMGLMVMEALKWGREEIAFEQILVNLQVMIDKTNAFIMVDDLNHLVKGGRLSNGSALLGNLLSIKPILYFTNGRIEVFEKVRTEKKAIKRLISIIDEVTADGSYMVYIIHANARGKAEDLQKRLVDHGYTKNLAIVPFNGVIATHLGEGAIALGAIPII”, the “soluble on expression in E. coli” value was “not soluble”.
As for “MGSDKIHHHHHHMKTRIVQKQFKRKETKYIVDKKTFELLEKELRQYMMADEFATSTITNIYFDNEDFDMIQDSLAKKNGREKIRMRVYDAIPSESSQAFLEIKKKENKIGYKYRLTSNPVSVANYIENGVIDSTIKDDKVNSELEMLRERYGTIKPKMYIYYDRVSYKGIEDKKVRLTIDKNLLYRDYDVDAMEGKFGKNLLDPTKVIMEVKVPEERPDWLVALLEKYQIEKQSFSKYGNAYKLAHNITGEEVSQHAVV”, the “soluble on expression in E. coli” value is “not soluble”.
The result for “MTIAQQERPVAASPYRFEAEMTSGLERVAAHHHDLTLTSVFQPIFSLSHMRAVGYEALLRAHDALDRPVSPLDVFGEAARHGEAAQVDRLAQALHLENFARFGAEREWLFLNVHPGVLTDPFQAAALFANLKRLEIPPRRIVLEVLEQRADDIERLADAVREFREQGFLIALDDFGAGHSNIERIWQLNPDIVKLDRIMLSHAQHRAGLTAILHGLVTLLHEAGKLVLIEGIETEHEAQIALACDADFVQGHFFGRP” reads “not soluble”; that for “MGSDKIHHHHHHMLSRPVRILIADEIGLGKTIQALAIARYLELQGEAKKILILVPKILREQWKQEIRRLGGKPVVITNGSEVERKLLRKATFNNAAEYFVVSIDLAKSQNHSEKFSAIDWDLLIVDEVHNVTYNTQRYNFLKSLIEKSKEDLNIVFLSATPHRGNPKDYIERLRLLDPTLTADWNALDSEKFYRRTHGVLVFRRTKKVVNDLEKREIFKKCDFNAVIVDITEEEKRFFEELDEVLFEMVKDVHMNSPVALLAVLLRKRAASSYESALKTINNIIKNQYSGASGEDVLEDQIKQIFGLGYDEMELEENSEIDDLISSIINSVAKRYPLDKGQINALEKILKIGKAIGKNDSKLKTLAEVLAYHLKKNEKVIVFTEFKDTLEYLRNNLPTLLEQEGIHLSEEKDISVLHGGMKSEEIEKQVEKFANDGKLLISTDVASEGLNLQVANILINYEIPWSPIKLEQRVGRIWRLNQTKETIAYTLLLNHEADLQILESLYQKILNITDAVGTGPNVGKPVFGTRTLSGNFEYRLENVQDEETSDSPVSEFELMLSAIKRRNLDEQTKRIISTLKSLRTKIEEVVPLNTCNEIQEELNSVLLPDDMESEIVFEKLKKYISVFENSFINSIGSYLFKILTDRIHEPLLNEKCLKIAVKNESKEYRLFQVEVIDRGRKIYEYPVLIEIGGNVSPQLYRGTSLLEKLADVFSKEWFVIEWANPKEKMDIQTAKLIDRSAKDLQSIMDKHTDYDIKLNESLMKTDSLFRRLNTRSSEILRVEGLSDREFSVFKLLHPSILEILGLSLDSIELPPSDYEKWMERSFVPLEDILESERKAMEIVMDIEKKRLIEKYGESSDWKVEDVSLKEHYDIKVSEPEGEKYIEVKGHKPLWLSAELTAAEHRFANDNRDRYWIYIVSNLGGKKPVILKIFSPFDDEKRKIYLVHENKDIDITEIFGSTIKTKQRYVISLGQKIYRRR”, “not soluble”.
As for “MGSDKIHHHHHHMSNNSKISWTTTTWNVTAGCDPISDGCKNCYARMMAERLKAMGQAKYQNGFIPTIHSECLNEPFGWKGNKLVFVVSMGDLFHKDIPFDFIDKVIEVITKCPQHTFQILTKRAERMYEYFSTHAIPENVWLGVTVENQKVKGRIDYLKKLDAPVRFLSCEPLLEDLGTLDLSDIDWVIVGGESGNRARKVEKDWILNIKSQCDASTSTAFFFKQWGTWGADGVKRSAKENGCLLDGKEYHAYPTPRKIKP”, the “soluble on expression in E. coli” value is given as “not soluble”.
Consider “MELTLQKYGSYEKFEQATGGSLLSKTRIWSHVRKYMVKEGCLGEIVVHLTEDLLSRASMTVVNGCPTLTINISTAREHWLEGMLRHEIGTHYFRGINNLQQPWNSWIGRKKHELKPNNPTEEGLASIHSVLFRKDPFLWRAALLYYTVYKASHMSFCELFKDIGKFVKDPNTRWDYCVRAKRGWTDTSEPGCFSKDQVYLDGVLQILRFRESIDFHLLTALGKVSYEDVDRLKELAVTENMRVPHFLHDHSRYMEHLERIMEVNELTDAELKNLI”, for which the “soluble on expression in E. coli” value is on record as “not soluble”.
The result for “MSLSAHPVPHAPAAPVCLAPRPAVPPTAVTVPPGAWDCHAHVLGPADLYPMQAERSYTPPDSSAAQYAALLDTLGLRRGVLVQPSVYGTDNRLLAQAVARPEWRGIAVLDPAADTRQVAALHAAGVRGFRLNLLFPGGPGLDALERSAALVAPFGWHAQLLVDVRILPGIEHRLARLPVPVVFDHLGHFPYELGTDWPGFHALLRRVAAGRTYVKLSGSYRLSARASHIADVAPIAQALVREAPQRLVWGSDWPHVGRFQDMPATHALLDALALWCPDPAARRAILVDTPTQLYSEGHHHHHH” reads “not soluble”; that for “MGSDKIHHHHHHMFSDMTLLQYINSEDRGFFLPDMGTNGLFLINKKAYEVYDSVDLQLELAKTMDKYFESDFIYSFCDGITFCETLGLETLRPDYDFPSVLTHTITDRDKLRKLDVPDPYTSGRMPLNIESLSVISKSIKKPLYESIQGPFTLAGQLAGATQLLRCIITDKKFVEELLEFTTELVRRYAVAANKAGAKYISIAEPTSVTLSKDRFDEFIVKNLNKIYNELDCWKGMHICGDTRELLDNMLSCNIDAVSLDQILDYEEIAPMIPRDIVLIGNLDPIKLLGRSKPDKIRRETLKLLKKMRRYDNFLCDFGCNCLNTTPVENLQAAIKAGRISYKELDRIDIDEL”, “not soluble”.
